Measurements reported in publication PMC4584387 (Journal of Medicinal Chemistry, 2015).
Where no end group is shown, it is not given here.

Target: Full-length human menin (human, UniProt O00255 1-610)
Assay: fluorescence polarisation

Full-length human menin, sequence (O00255 whole entry): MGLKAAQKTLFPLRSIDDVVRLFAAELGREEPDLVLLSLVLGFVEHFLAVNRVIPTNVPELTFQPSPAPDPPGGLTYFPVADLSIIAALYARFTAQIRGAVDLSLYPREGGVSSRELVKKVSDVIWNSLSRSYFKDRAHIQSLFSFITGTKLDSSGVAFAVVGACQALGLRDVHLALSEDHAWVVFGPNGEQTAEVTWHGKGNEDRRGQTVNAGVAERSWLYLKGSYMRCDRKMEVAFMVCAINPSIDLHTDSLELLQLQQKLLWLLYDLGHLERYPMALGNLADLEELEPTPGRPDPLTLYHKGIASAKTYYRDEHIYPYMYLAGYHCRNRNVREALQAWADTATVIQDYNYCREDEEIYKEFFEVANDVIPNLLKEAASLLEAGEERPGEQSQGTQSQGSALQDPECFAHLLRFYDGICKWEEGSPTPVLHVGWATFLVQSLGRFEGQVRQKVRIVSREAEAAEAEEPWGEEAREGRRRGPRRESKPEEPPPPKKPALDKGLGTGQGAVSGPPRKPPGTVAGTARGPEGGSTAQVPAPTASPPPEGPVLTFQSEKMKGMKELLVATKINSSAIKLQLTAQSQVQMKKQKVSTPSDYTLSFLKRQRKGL

B1: FITC-MBM1 peptide of MLL (residues 4-15) (peptide, UniProt Q03164 4-15, looked up)
peptide: SCRWRFPARPGT
modifications: also: FITC label, position not given here
Does B1 bind?
Result: binds
